For assay [1], the target named is T1, rhesus c-Met on 4MBr-5 cells (rhesus, UniProt F7H1K4 25-1381, Natural c-Met is cleaved at the furin site (KRKKR/S) into disulphide-linked alpha and beta subunits; given here as one mature polypeptide.).
T1 construct: also called rhesus c-Met antigen
Kind of assay: flow cytometry, 4MBr-5 cells; EC50 with 50 ng/mL HGF against EC50 without HGF. The procedure: (§1) Cellular binding of the in total 75 humanized anti-c-Met antibodies (originating from the three selected chimeric antibodies) was studied in human c-Met-positive tumor cell lines MKN45, NCI-H596 and PC-3, rhesus c-Met-positive tumor cell line 4 MBr-5, and human c-Met-negative tumor cell line MDA-MB-175-VII. Cells were used around 90% of confluence at the time of an assay, detached with Trypsin-Versene (EDTA) (Lonza) for 5-10 minutes, washed and adjusted to a concentration of 1×10⁶ cells/mL in ice-cold FACS buffer (PBS 1×, 0.1% v/w BSA, 0.02% v/v sodium azide (NaN₃)). Staining was performed in 96-well round-bottomed microtiter plates using ice-cold reagents/solutions at 4° C. to prevent the modulation and internalization of surface antigens. 100,000 cells/well were added to 96-well plates (100 μL/well) and centrifuged at 300×g for 3 minutes. In case of pre-incubation with HGF, the cells were resuspended in 50 ng/mL recombinant human HGF in FACS buffer (50 μL/well) and incubated for 30 minutes at 4° C., followed by two wash steps with 150 μL FACS buffer. Supernatant was discarded and cells were stained for 30 minutes with 50 μL of each antibody. Serial dilutions were made in ice-cold FACS buffer. Cells were washed twice by centrifugation at 300×g for 3 minutes and resuspended in 50 μL 6000-times diluted secondary F(ab′)₂ goat anti-human IgG (Fc fragment specific) antibody APC-conjugated (Jackson ImmunoResearch). Following a 30-minute incubation on ice, cells were washed again 2 times and resuspended in 150 μL ice-cold FACS buffer for FACS analysis. For analysis of the data, the Median Fluorescence Intensity (MFI) values were obtained.

Assay [2] deals with T2, human c-Met (HGFR), full length, on the cell surface (human, UniProt P08581 25-1390).
T2 construct: Endogenous c-Met on human tumor cell lines MKN45, NCI-H596, PC-3 and HepG2; also called hepatocyte growth factor receptor; mesenchymal-epithelial transition factor
The assay is described as follows: flow cytometry, PC-3 cells, without HGF. The procedure:
as §1
(In general: In flow cytometry, cells or beads pass a laser one at a time.)

The target in assay [3] is T1, rhesus c-Met on 4MBr-5 cells. Kind of assay: flow cytometry, 4MBr-5 cells pre-incubated with 50 ng/mL HGF. The procedure: as §1
In assay [4] the target is T3, biotinylated human c-Met extracellular domain (human, UniProt P08581 25-932, biotinylated (site not stated)).
T3 construct: also called Human c-Met ECD
The assay is described as follows: SPR (Biacore T200, 37 C), biotinylated c-Met captured on CAP chip, mAb3b as analyte, 1:1 Langmuir fit; KD-obs. The procedure: (§2) Binding analysis was performed on a Surface Plasmon Resonance instrument (Biacore© T200 system, GE Life Sciences) at 37° C. Biotinylated human or cyno c-Met was captured on the surface of a CAPchip made suitable for capture of biotinylated molecules (Sensor Chip CAP, GE Life Sciences) by injection of Biotin Capture reagent for 300 seconds at 2 μL/min on flow cell 1 and 2. A dilution of the biotinylated c-Met antigen in running buffer (10 mM HEPES buffer at 25° C., pH 7.4 with 150 mM NaCl, 3 mM EDTA and 0.005% v/v polyoxyethylene (20) sorbitan monolaurate (Surfactant P20) was injected at variable contact times to obtain different capture levels at 5 μL/min. The dilution and contact time for c-Met variant was estimated with the aim for a capture level around 20 RU. After a one-minute baseline, the mAb3b sample was injected in five increasing concentrations (0.037, 0.11, 0.33, 1 and 3 nM) at […] for 60 seconds with a 900-second dissociation time. The Rₘₐₓ for the interactions was between 5-10 RU. Regeneration was performed with 6 M guanidine-HCl, 0.25 M NaOH solution (120 seconds with flow rate of […]). […] The sensorgrams were fitted to a 1:1 Langmuir binding model and subsequently evaluated for the goodness of the fit (chi2), the uniqueness of the fit (U-value) and by visual inspection and biological relevance.
In general terms: SPR reads the build-up and loss of mass on a sensor chip optically.

Assay [5] addresses T4, biotinylated cynomolgus c-Met extracellular domain (cynomolgus, UniProt A0M8R7 25-932 (Papio anubis entry), biotinylated (site not stated)).
T4 construct: also called Cyno c-Met ECD
The description is as above. The procedure: as §2

Assay [6] concerns the target T2, human c-Met (HGFR), full length, on the …. Kind of assay: cell binding on c-Met positive MKN45 cells, fluorescence readout RFU (R-PE), mean ± S.E.M. of two experiments in duplicate.
The target is the same in assay [7]. Kind of assay: flow cytometry, NCI-H596 cells; EC50 with 50 ng/mL HGF against EC50 without HGF. The procedure:
as §1

Assay [8] shares this target. The assay is described as follows: flow cytometry, MKN45 cells, without HGF. The procedure: as §1
The target of assay [9] is T1, rhesus c-Met on 4MBr-5 cells. Kind of assay: flow cytometry, 4MBr-5 cells, without HGF. The procedure: as §1
The target in assay [10] is T2, human c-Met (HGFR), full length, on the …. The assay is described as follows: flow cytometry, NCI-H596 cells pre-incubated with 50 ng/mL HGF. The procedure:
as §1

Assay [11] shares this target. The assay is described as follows: flow cytometry, PC-3 cells pre-incubated with 50 ng/mL HGF. The procedure: as §1
Assay [12] shares this target. The assay is described as follows: flow cytometry, NCI-H596 cells, without HGF. The procedure:
as §1

Assay [13] shares this target. The assay is described as follows: flow cytometry, PC-3 cells; EC50 with 50 ng/mL HGF against EC50 without HGF. The procedure: as §1
For assay [14], the system named is c-Met-positive tumor cell lines MKN45, NCI-H441 and PC-3. The assay is described as follows: Internalization by flow cytometry (AF488 quenching). The assay is classed as cell-based, human. The procedure:
Internalization of mAb3b was studied in human c-Met-positive tumor cell lines MKN45, NCI-H441 and PC-3. Cells (100,000 cells/well of a 96-well round bottomed microtiter plate) were incubated for 30 minutes at 4° C. with 50 μL 10 μg/mL mAb3b or appropriate non-binding control antibody. After a wash step with ice-cold complete growth medium (CGM) consisting of RPMI (Lonza) supplemented with 10% heat inactivated (HI) fetal bovine serum (FBS) (Gibco) and 80 U/mL penicillin/streptomycin (Lonza), the cells were incubated for 30 minutes at 4° C. with 50 μL Alexa Fluor 488 (AF488)-labeled Fab Fragment goat anti-human IgG (1:600 dilution) (Jackson Immunoresearch). After a wash step with ice-cold CGM, cells were resuspended in 150 μL pre-warmed CGM and transferred to polypropylene tubes, one for each time point (0 h, 0.5 h, 1 h, 3 h, 24 h) and placed into a 37° C. water bath to initiate internalization. […] Identical unquenched tubes were determined for the total fluorescence at each time point. Fluorescence intensities were determined by flow cytometry (BD FACSVerse, Franklin Lakes, NJ) and indicated as the Median Fluorescence Intensity (MFI). Internalization was quantified by calculating the percentage of internalization with the formula described. […]

T2 sequence (P08581 25-1390 limits assumed): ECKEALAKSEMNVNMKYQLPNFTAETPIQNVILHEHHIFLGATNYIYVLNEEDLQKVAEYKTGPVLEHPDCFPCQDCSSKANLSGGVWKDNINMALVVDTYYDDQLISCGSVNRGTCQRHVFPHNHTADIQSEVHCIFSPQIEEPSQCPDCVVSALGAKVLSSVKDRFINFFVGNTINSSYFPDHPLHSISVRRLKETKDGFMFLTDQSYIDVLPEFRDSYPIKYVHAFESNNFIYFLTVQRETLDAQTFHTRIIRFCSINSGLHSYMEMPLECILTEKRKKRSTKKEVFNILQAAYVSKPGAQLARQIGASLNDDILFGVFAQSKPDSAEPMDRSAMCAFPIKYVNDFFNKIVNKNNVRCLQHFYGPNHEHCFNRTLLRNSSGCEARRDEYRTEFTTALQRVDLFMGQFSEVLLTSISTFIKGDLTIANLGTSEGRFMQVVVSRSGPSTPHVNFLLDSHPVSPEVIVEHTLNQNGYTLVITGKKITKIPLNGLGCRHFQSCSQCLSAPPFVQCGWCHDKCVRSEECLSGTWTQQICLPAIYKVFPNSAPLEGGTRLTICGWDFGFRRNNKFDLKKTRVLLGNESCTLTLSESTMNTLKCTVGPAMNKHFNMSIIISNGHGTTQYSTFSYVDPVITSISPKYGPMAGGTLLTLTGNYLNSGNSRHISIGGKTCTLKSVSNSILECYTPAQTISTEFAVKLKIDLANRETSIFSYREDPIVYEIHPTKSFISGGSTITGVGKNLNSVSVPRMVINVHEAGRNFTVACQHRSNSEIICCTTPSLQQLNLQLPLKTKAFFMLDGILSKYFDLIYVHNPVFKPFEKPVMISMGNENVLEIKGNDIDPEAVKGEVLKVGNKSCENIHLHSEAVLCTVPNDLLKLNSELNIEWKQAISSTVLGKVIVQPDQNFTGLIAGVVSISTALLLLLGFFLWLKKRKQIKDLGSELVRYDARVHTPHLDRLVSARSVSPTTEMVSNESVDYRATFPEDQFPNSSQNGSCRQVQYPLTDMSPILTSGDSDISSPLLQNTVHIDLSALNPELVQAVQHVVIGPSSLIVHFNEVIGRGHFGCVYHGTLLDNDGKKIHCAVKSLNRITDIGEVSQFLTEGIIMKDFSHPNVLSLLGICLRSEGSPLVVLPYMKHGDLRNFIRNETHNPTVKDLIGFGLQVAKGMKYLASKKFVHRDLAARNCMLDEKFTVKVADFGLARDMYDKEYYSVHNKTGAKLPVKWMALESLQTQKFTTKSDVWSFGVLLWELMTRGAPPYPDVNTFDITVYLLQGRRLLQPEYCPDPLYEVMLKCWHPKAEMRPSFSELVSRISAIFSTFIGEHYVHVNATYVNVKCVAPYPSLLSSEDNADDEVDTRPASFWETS
T1 sequence (F7H1K4 entry or part of it limits assumed): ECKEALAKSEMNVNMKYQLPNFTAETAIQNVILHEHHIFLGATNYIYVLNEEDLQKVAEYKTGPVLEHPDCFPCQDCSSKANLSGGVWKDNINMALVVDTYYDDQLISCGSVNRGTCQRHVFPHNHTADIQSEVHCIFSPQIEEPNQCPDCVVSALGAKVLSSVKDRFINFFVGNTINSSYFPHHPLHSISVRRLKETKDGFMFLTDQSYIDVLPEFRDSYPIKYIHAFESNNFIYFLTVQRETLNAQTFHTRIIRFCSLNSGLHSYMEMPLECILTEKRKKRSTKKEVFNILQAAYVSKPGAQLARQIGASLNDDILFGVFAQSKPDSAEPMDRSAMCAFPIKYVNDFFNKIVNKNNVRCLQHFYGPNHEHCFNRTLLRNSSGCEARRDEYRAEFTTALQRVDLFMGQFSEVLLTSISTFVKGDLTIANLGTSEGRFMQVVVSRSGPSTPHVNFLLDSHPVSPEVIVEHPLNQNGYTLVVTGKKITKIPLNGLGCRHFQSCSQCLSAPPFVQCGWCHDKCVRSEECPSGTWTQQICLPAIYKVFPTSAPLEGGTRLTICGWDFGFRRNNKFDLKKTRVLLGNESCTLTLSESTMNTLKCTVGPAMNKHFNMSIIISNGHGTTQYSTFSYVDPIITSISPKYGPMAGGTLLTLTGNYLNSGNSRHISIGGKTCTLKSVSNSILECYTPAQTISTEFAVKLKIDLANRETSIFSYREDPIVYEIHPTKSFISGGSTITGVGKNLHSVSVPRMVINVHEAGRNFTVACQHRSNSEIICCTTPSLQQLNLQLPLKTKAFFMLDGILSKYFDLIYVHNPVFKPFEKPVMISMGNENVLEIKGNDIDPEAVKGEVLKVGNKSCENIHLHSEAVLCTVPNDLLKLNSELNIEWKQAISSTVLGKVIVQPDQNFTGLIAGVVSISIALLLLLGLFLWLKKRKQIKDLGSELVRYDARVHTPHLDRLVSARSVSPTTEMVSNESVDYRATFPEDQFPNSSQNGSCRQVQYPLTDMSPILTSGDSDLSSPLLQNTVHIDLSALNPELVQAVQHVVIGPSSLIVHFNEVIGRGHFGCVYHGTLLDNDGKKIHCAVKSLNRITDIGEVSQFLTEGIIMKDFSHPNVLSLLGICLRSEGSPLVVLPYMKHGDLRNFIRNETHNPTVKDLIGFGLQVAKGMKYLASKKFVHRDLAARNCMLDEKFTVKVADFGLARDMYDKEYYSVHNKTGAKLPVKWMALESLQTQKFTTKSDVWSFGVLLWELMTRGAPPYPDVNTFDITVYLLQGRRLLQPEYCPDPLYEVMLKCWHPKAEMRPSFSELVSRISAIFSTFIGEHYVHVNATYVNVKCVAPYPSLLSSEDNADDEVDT
T3 sequence (P08581 25-932 limits assumed): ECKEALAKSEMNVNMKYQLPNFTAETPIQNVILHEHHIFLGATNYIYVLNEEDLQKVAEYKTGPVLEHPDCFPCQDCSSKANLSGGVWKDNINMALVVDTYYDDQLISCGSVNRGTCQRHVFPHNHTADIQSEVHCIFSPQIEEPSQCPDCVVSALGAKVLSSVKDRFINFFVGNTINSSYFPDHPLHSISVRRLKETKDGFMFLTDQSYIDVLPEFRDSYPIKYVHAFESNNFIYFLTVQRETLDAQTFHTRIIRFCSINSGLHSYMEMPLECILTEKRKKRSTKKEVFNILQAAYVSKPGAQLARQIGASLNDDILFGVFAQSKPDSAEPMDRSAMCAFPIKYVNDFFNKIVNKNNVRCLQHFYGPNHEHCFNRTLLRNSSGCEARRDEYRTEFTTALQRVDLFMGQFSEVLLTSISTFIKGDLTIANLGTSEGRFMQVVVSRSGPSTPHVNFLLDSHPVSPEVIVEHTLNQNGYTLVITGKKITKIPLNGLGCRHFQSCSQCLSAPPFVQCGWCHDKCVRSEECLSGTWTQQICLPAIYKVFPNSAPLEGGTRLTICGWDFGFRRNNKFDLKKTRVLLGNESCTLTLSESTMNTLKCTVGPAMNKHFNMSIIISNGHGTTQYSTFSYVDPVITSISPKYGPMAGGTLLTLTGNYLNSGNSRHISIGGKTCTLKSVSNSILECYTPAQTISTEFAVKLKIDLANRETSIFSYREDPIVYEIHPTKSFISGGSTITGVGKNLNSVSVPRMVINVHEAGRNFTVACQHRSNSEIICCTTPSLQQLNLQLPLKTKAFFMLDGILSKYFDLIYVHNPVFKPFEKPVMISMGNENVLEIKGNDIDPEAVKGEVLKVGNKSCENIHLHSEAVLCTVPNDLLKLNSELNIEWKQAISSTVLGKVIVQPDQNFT
T4 sequence (A0M8R7 25-932 S170N/I621T limits assumed): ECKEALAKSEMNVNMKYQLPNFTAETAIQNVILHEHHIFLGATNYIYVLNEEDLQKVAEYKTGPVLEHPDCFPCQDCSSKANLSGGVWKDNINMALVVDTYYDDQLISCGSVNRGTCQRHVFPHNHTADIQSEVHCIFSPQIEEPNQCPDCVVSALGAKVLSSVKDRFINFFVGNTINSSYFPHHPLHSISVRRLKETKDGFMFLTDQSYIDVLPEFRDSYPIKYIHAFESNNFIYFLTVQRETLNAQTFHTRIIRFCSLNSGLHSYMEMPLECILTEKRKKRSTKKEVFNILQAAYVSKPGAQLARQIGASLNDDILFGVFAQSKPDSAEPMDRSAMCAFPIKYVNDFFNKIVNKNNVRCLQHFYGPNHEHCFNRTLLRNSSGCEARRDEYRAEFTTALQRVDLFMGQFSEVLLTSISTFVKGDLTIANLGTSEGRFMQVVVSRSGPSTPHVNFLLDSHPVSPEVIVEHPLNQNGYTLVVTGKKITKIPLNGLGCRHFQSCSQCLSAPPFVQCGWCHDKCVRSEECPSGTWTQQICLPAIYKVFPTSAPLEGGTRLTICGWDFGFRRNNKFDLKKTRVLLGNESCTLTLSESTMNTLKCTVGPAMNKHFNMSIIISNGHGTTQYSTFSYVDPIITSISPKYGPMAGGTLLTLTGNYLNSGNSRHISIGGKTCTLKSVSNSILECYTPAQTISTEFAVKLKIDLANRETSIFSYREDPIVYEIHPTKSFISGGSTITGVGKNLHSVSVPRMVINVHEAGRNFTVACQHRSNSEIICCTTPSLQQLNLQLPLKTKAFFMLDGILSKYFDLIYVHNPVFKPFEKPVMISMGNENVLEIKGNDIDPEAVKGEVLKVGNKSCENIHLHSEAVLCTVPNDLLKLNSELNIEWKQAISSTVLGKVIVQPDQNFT

B1: mAb3b (antibody, human IgG1, kappa, V domains shown)
VH: QVQLVQSGAEVKKPGASVKVSCKASGYTFTDYYLNWVRQACGQGLEWMGLIFPGNDKTEYSEKFKGRVTLTTDTSISTAYMELSSLTSDDTALYYCSGGDYGGFVYWGQGTLVTVSS
VL: DIQMTQSPSSLSASVGDRVTISCGASENIYGALNWYQQQPGKAPKVLIFGATNLADGVPSRFSGSGSGTDFTLTISSLQPEDFATYYCQNVLSSPLTFGQGTKLEIKR
notes: Humanized IgG1 kappa, HC-41C, from wt/41C-chi-mAb3; also called humanized HC-41C antibody mAb3b
In general, EC50 refers to the midpoint of the concentration-response curve. Higher therefore signals a less potent agent. For orientation: Kd means a measure of binding affinity in units of concentration. Read a low Kd as higher affinity. As usually defined, the EC50 (read off the curve) is the midpoint of the concentration-response curve. Take B1: the “Fold shift (HGF)” value was 1.8 fold in assay [1], 3.5 fold in [7] and 2 fold in assay [13]. Further, the EC50 in assay [2] was found to be 0.03 µg/mL; in assay [3] it was 0.04 µg/mL; in assay [8] it was 0.06 µg/mL; in assay [9], 0.02 µg/mL; in assay [10], 0.07 µg/mL; in [11], 0.06 µg/mL. Moreover, the EC50 in assay [12] worked out at 0.02 µg/mL. Further, the Kd in assay [4] and in [5] was below 10 pM in each case. In addition, the “EC50 (read off the curve)” value in [6] is around 0.06 µg/mL.

B2: mAb3b: HC-41C humanized anti-c-Met antibody, VH SEQ ID NO:16, VL SEQ ID NO:20 (antibody, V domains shown)
VH: QVQLVQSGAEVKKPGASVKVSCKASGYTFTDYYLNWVRQACGQGLEWMGLIFPGNDKTEYSEKFKGRVTLTTDTSISTAYMELSSLTSDDTALYYCSGGDYGGFVYWGQGTLVTVSS
VL: DIQMTQSPSSLSASVGDRVTISCGASENIYGALNWYQQQPGKAPKVLIFGATNLADGVPSRFSGSGSGTDFTLTISSLQPEDFATYYCQNVLSSPLTFGQGTKLEIK
modifications: humanized HCVR; humanized LCVR
As for B2, the Internalization result in assay [14] (10 μg/mL, each of MKN45, NCI-H441, PC-3) is on record as “Efficient internalization”. The “time of maximum internalization” value in [14] (each of the cell lines) is 24 h.

The values above are taken from patent US20240376214A1, “ANTI-C-MET ANTIBODIES AND ANTIBODY-DRUG CONJUGATES” (BYONDIS B.V., priority 2021, published 2024).
